Data: the Human Domainome abundance scans (Beltran et al. 2025)
± gives the uncertainty stated by the source.

B1: Spectrin alpha chain, erythrocytic 1, residues 979 to 1036; numbered along this chain, P02549 (parent)
chain: EQRVMALYDFQARSPREVTMKKGDVLTLLSSINKDWWKVEAADHQGIVPAVYVRRLAH

Variants of: B1
Assay: abundance fitness (aPCA) (normalised: wild type 0, dead -1); higher = more abundant; growth selection in yeast, the domain comes from the species named
Details: Homo sapiens

Abundance fitness: each site, then its substitutions
V25: K -0.226 ± 0.46, C -0.146 ± 0.39, T -0.7 ± 0.5, S -0.887 ± 0.34, M -0.425 ± 0.13, A -0.163 ± 0.26, E 0.059 ± 0.29, L -1.01 ± 0.49, H -0.432 ± 0.14, I -0.099 ± 0.21, R -0.469 ± 0.14
F10: D -0.834 ± 0.36, W 0.365 ± 0.085, Y 0.625 ± 0.12, C -1.09 ± 0.33, L -0.658 ± 0.16, G -0.996 ± 0.44, A -0.778 ± 0.1, V -0.992 ± 0.23, R -0.472 ± 0.11, Q -0.607 ± 0.11, P -0.712 ± 0.2, I -0.341 ± 0.44, S -0.707 ± 0.21
K21: W -0.534 ± 0.41, P -0.578 ± 0.44, L -0.731 ± 0.14, I -0.779 ± 0.22, H -0.304 ± 0.35, A -0.561 ± 0.14, G -0.652 ± 0.17, R -0.105 ± 0.13, V -0.781 ± 0.12, F -0.643 ± 0.36
E17: K -0.403 ± 0.46, T -0.729 ± 0.41, Q -0.239 ± 0.31, Y -0.012 ± 0.27, A -0.64 ± 0.23, S -0.92 ± 0.41, W -0.8 ± 0.28, F -0.594 ± 0.46, H -0.63 ± 0.13, G -0.801 ± 0.27, C -0.911 ± 0.41, R -0.778 ± 0.21, N -0.693 ± 0.32, D -0.738 ± 0.28, V -0.9 ± 0.32, L -0.802 ± 0.19
M5: W -0.85 ± 0.17, N -0.512 ± 0.48, Q -0.383 ± 0.21, T -0.242 ± 0.14, S -0.344 ± 0.15, V 0.422 ± 0.056
I32: W 1.06 ± 0.31
T19: S 0.249 ± 0.08, P -0.613 ± 0.15, Q -0.476 ± 0.16, N -0.122 ± 0.33, L -0.369 ± 0.14, W -0.932 ± 0.14, R -0.744 ± 0.21, V -0.822 ± 0.11, E -0.73 ± 0.36, A -0.371 ± 0.17
M20: E -0.726 ± 0.26, V -0.22 ± 0.12, T -0.877 ± 0.18, Q -0.236 ± 0.17, Y -0.867 ± 0.32, A -0.791 ± 0.24, P -0.831 ± 0.38, N -0.209 ± 0.44, R -0.963 ± 0.19, K -0.574 ± 0.41, W -0.622 ± 0.14, C -0.726 ± 0.21, F -0.681 ± 0.24, G -0.829 ± 0.2, I -0.554 ± 0.38, L -0.276 ± 0.092
L28: K -0.676 ± 0.44, A -0.762 ± 0.26, R -0.938 ± 0.18, W -0.536 ± 0.47, T -0.47 ± 0.25, I 0.024 ± 0.44, G -0.756 ± 0.14, S -0.726 ± 0.39, C 0.354 ± 0.28
N33: D 0.224 ± 0.22, R -0.739 ± 0.12, C -0.929 ± 0.38, G -0.447 ± 0.18, S -0.35 ± 0.34, A -0.751 ± 0.17, V -0.833 ± 0.3, L -0.694 ± 0.29, E -0.064 ± 0.21, Q -0.494 ± 0.28, W -0.822 ± 0.21
V18: R -0.817 ± 0.16, C -0.266 ± 0.21, Q -0.656 ± 0.42, G -0.587 ± 0.15, A -0.376 ± 0.13, W -1.03 ± 0.23, K -0.418 ± 0.17, E -0.784 ± 0.26, F -0.339 ± 0.25, L 0.138 ± 0.1, M -0.33 ± 0.21, P -0.71 ± 0.33
K22: R -0.238 ± 0.11, A -0.664 ± 0.17, W -0.725 ± 0.2, Q 0.303 ± 0.49, E -0.819 ± 0.36, C -0.586 ± 0.42, H -0.341 ± 0.42
S30: L -1.18 ± 0.29, C -0.337 ± 0.28, E -0.066 ± 0.094, T -0.632 ± 0.22, V -0.964 ± 0.28, Y -0.108 ± 0.49, M -0.463 ± 0.32, A -0.657 ± 0.14, G -0.041 ± 0.14, K -0.322 ± 0.26, D -0.013 ± 0.26
L7: S -0.85 ± 0.29, G -0.559 ± 0.12, K -0.176 ± 0.35, W -0.716 ± 0.22, A -0.609 ± 0.12, R -0.686 ± 0.14, H -1.18 ± 0.43, M -0.049 ± 0.14, D -0.135 ± 0.48, P -0.76 ± 0.14, V -0.199 ± 0.15
L29: I -0.266 ± 0.4, R -0.768 ± 0.34, S -0.134 ± 0.2, T -0.27 ± 0.29, W -0.111 ± 0.26, G -0.464 ± 0.23, M -0.582 ± 0.16, E -0.934 ± 0.22, P 0.075 ± 0.33, K 0.119 ± 0.11, V 0.016 ± 0.081
K38: A -0.258 ± 0.29, F 0.208 ± 0.25, E 0.281 ± 0.19, C 0.284 ± 0.19
Y8: A 0.346 ± 0.28, F 0.772 ± 0.34
K34: M -0.514 ± 0.11, R -0.168 ± 0.097, Q -0.229 ± 0.28, T 0.023 ± 0.26, V -0.741 ± 0.19, P -0.015 ± 0.33, G -0.415 ± 0.081, L 0.207 ± 0.17, H 0.231 ± 0.29, A -0.292 ± 0.086
P15: K 0.089 ± 0.17, Y 0.325 ± 0.43, R -0.529 ± 0.14, S -0.178 ± 0.093, L -0.705 ± 0.2, D 0.163 ± 0.16, V -0.561 ± 0.15, T -0.293 ± 0.23, E -0.077 ± 0.17, C -0.411 ± 0.25, A -0.252 ± 0.11, G -0.46 ± 0.1
S31: D 0.673 ± 0.16, C -0.157 ± 0.23, L -0.38 ± 0.21, W -0.814 ± 0.12, G -0.34 ± 0.11, R -0.282 ± 0.082, E 0.518 ± 0.13, A 0.092 ± 0.06, I 0.495 ± 0.26, V 0.437 ± 0.098, M -0.04 ± 0.22, F -0.47 ± 0.098, Y -0.252 ± 0.17, K -0.179 ± 0.27, Q 0.225 ± 0.17, N -0.224 ± 0.5
A12: S -0.802 ± 0.24, K -0.71 ± 0.47, V -0.848 ± 0.38, W -0.804 ± 0.4, F -0.627 ± 0.41, G -0.779 ± 0.2, M -0.891 ± 0.41, L -0.964 ± 0.23, R -0.389 ± 0.17, P -0.971 ± 0.14
W37: D -0.644 ± 0.23, M -0.12 ± 0.2, A -0.848 ± 0.45, L 0.323 ± 0.059, I 0.405 ± 0.2, C -0.386 ± 0.25, V 0.367 ± 0.1, R -0.267 ± 0.2, G -0.596 ± 0.31
Q11: V 0.097 ± 0.13, I -0.419 ± 0.33, E -0.328 ± 0.34, D -0.582 ± 0.38, G -0.774 ± 0.11, Y -0.185 ± 0.095, C -0.348 ± 0.094, T 0.028 ± 0.14, S -0.372 ± 0.1, M -0.314 ± 0.092, P -0.91 ± 0.37, K 0.303 ± 0.14, A -0.37 ± 0.14, H -0.421 ± 0.37, W -1.23 ± 0.32
S14: L -0.866 ± 0.21, T -0.069 ± 0.094, C -0.571 ± 0.37, Q -0.769 ± 0.26, R -0.364 ± 0.15, D 0.134 ± 0.24, H -0.292 ± 0.28, N 0.014 ± 0.36, A -0.743 ± 0.097, P -0.802 ± 0.19, G -0.358 ± 0.14, V -0.677 ± 0.26, I -0.276 ± 0.33
D9: M -0.855 ± 0.19, T -0.862 ± 0.3, R -0.943 ± 0.23, W -1.02 ± 0.2, V -0.934 ± 0.14, G -0.652 ± 0.11, S -0.754 ± 0.23, L -0.566 ± 0.16, N -0.651 ± 0.48, E -1.01 ± 0.41, A -0.166 ± 0.15
T27: I -0.521 ± 0.29, S -0.808 ± 0.12, N -0.246 ± 0.17, K 0.229 ± 0.15, C -0.627 ± 0.32, Q -0.228 ± 0.28, L -0.752 ± 0.27, V -0.396 ± 0.088, A -0.975 ± 0.32, P -0.382 ± 0.44
D24: T 0.006 ± 0.41, R -0.689 ± 0.28, Q 0.579 ± 0.22, M -0.527 ± 0.15, V -0.421 ± 0.27, S -0.256 ± 0.24, L -0.986 ± 0.26, G -0.883 ± 0.29, Y -0.805 ± 0.3
W36: V -0.554 ± 0.42, E 0.664 ± 0.2, G -0.778 ± 0.2, R -0.894 ± 0.36, K -0.675 ± 0.29, D -0.582 ± 0.15
L26: M -0.34 ± 0.18, R -0.819 ± 0.38, V -0.767 ± 0.28, G -0.65 ± 0.13, Q -0.429 ± 0.26, C -0.046 ± 0.44, I -0.691 ± 0.11, K -0.324 ± 0.39, E -0.5 ± 0.34, Y -0.173 ± 0.36, A -0.493 ± 0.17, F -0.237 ± 0.32
R13: F -0.585 ± 0.27, Q -0.305 ± 0.088, A -0.26 ± 0.16, G -0.527 ± 0.079, L -0.742 ± 0.12, C -0.316 ± 0.23, S -0.221 ± 0.15, W -0.738 ± 0.24, V -0.867 ± 0.13, M -0.751 ± 0.26, K -0.414 ± 0.26
R16: A 0.254 ± 0.37, S 0.579 ± 0.45
A6: C -0.048 ± 0.27, T -0.685 ± 0.41, Y -0.794 ± 0.31, G -0.76 ± 0.14, W -0.754 ± 0.098, Q -0.975 ± 0.2, M -0.915 ± 0.3, V -0.861 ± 0.13, L -0.886 ± 0.12, P -0.882 ± 0.19, S -0.496 ± 0.26, R -0.767 ± 0.17, E -0.47 ± 0.11, K -0.73 ± 0.28, N -0.44 ± 0.37
D35: P -0.867 ± 0.42, R -0.326 ± 0.2, E -0.364 ± 0.26, T -0.506 ± 0.27, K -0.027 ± 0.16, Q -0.697 ± 0.31, V -0.037 ± 0.14, L -0.685 ± 0.098, S -0.006 ± 0.18, A -0.541 ± 0.096, M -0.535 ± 0.26, N -0.182 ± 0.24
